Measured values reported in patent US20130004519A1.

Experiments:
[1] = molecular target: His-tagged human tenascin-C (human) (UniProt P24821); assay: pull-down on tenascin-C-Sepharose 4B, multiple reaction monitoring
[2] = molecular target: His-tagged human tenascin-C (human) (UniProt P24821); assay: pull-down on tenascin-C-Sepharose 4B, spectral counting normalized to background proteins
[3] = molecular target: His-tagged human tenascin-C (human) (UniProt P24821); assay: pull-down from HEK293 conditioned medium on tenascin-C-Sepharose 4B, nanoLC-MSMS
[4] = molecular target: horse fibronectin coupled to CNBr-activated Sepharose 4B (horse) (UniProt Q28377); assay: pull-down from HEK293 conditioned medium on horse fibronectin-Sepharose 4B, nanoLC-MSMS
Chain of horse fibronectin coupled to CNBr-activated Sepharose 4B (horse) (Q28377 32-2477 limits assumed): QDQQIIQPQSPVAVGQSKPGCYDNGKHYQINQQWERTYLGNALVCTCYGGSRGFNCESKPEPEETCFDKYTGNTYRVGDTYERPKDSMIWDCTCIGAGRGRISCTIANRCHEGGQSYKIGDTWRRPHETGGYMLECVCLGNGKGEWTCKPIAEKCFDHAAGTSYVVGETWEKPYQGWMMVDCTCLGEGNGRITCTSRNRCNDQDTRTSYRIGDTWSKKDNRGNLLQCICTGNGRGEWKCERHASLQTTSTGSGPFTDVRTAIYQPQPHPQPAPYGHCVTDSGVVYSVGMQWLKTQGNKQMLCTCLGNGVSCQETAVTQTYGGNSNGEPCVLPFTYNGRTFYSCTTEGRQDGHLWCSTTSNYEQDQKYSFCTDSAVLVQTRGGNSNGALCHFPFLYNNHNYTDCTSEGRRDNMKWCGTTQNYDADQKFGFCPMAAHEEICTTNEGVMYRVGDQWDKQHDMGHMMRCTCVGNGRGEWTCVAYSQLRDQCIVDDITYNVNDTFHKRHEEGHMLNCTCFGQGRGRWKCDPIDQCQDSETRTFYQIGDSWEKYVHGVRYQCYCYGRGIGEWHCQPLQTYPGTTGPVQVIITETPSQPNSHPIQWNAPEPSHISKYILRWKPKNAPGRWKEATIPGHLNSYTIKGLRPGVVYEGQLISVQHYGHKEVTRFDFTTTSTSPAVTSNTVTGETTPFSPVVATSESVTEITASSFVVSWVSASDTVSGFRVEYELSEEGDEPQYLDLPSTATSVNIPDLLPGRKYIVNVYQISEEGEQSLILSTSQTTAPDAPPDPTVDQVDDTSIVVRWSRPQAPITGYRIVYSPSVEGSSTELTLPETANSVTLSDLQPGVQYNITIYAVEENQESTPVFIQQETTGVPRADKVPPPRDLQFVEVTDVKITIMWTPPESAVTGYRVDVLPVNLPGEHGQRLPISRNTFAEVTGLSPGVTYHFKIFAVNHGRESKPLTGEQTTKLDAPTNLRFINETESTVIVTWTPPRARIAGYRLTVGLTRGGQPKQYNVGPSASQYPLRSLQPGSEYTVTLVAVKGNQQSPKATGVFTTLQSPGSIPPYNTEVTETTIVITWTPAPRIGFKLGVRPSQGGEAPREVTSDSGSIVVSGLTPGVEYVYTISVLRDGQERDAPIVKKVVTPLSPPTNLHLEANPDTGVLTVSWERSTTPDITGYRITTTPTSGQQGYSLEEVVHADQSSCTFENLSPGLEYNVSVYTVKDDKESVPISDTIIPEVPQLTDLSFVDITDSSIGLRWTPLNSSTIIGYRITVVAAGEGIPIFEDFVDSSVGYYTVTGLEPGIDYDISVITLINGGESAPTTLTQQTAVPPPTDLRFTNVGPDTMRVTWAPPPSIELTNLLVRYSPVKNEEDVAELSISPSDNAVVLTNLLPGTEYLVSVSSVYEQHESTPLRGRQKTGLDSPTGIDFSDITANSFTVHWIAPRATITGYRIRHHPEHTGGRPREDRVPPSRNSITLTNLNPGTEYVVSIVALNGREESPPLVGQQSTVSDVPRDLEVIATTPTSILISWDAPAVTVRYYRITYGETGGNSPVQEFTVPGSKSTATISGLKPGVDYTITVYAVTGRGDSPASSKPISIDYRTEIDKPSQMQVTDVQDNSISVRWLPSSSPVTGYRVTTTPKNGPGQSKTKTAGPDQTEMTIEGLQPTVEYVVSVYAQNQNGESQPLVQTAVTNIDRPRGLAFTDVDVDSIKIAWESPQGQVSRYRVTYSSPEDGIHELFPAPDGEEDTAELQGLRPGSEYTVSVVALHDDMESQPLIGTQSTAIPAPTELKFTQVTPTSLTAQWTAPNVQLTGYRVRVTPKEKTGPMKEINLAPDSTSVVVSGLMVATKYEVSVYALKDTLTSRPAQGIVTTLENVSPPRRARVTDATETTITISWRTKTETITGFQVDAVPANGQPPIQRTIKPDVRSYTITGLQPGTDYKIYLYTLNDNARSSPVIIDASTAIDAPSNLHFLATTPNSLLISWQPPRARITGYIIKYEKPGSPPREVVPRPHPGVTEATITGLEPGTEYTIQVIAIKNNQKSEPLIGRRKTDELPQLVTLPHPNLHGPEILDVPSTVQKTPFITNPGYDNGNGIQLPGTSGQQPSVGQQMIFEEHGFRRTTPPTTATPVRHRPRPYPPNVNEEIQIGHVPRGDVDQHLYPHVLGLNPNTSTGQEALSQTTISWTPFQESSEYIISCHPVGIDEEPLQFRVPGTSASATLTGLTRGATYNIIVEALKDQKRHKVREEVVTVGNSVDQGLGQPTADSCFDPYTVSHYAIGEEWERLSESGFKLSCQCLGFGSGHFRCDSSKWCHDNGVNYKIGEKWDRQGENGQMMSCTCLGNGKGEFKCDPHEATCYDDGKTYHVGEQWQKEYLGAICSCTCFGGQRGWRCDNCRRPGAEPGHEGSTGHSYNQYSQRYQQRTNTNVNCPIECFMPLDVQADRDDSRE

[5] = molecular target: His-tagged human tenascin-C (human) (UniProt P24821); assay: pull-down from HEK293 conditioned medium on tenascin-C-Sepharose 4B, nanoLC-MSMS; listed as background protein (control column score 720)
[6] = molecular target: horse fibronectin coupled to CNBr-activated Sepharose 4B (horse) (UniProt Q28377); assay: pull-down from HEK293 conditioned medium on horse fibronectin-Sepharose 4B, nanoLC-MSMS; listed as background protein (control column score 720)
[7] = molecular target: horse fibronectin coupled to CNBr-activated Sepharose 4B (horse) (UniProt Q28377); assay: pull-down from HEK293 conditioned medium on horse fibronectin-Sepharose 4B, nanoLC-MSMS; listed as background protein (control column count 44)
[8] = molecular target: His-tagged human tenascin-C (human) (UniProt P24821); assay: pull-down from HEK293 conditioned medium on tenascin-C-Sepharose 4B, nanoLC-MSMS; listed as background protein (control column count 44)
[9] = molecular target: horse fibronectin coupled to CNBr-activated Sepharose 4B (horse) (UniProt Q28377); assay: pull-down from HEK293 conditioned medium on horse fibronectin-Sepharose 4B, nanoLC-MSMS; listed as background protein (control column score 833)
[10] = molecular target: His-tagged human tenascin-C (human) (UniProt P24821); assay: pull-down from HEK293 conditioned medium on tenascin-C-Sepharose 4B, nanoLC-MSMS; listed as background protein (control column count 32)
[11] = molecular target: horse fibronectin coupled to CNBr-activated Sepharose 4B (horse) (UniProt Q28377); assay: pull-down from HEK293 conditioned medium on horse fibronectin-Sepharose 4B, nanoLC-MSMS; listed as background protein (control column count 32)
[12] = molecular target: His-tagged human tenascin-C (human) (UniProt P24821); assay: pull-down from HEK293 conditioned medium on tenascin-C-Sepharose 4B, nanoLC-MSMS; listed as background protein (control column score 833)

Chain of Fibronectin from HEK293 conditioned medium, P02751 32-2477 (P02751 32-2477 limits assumed): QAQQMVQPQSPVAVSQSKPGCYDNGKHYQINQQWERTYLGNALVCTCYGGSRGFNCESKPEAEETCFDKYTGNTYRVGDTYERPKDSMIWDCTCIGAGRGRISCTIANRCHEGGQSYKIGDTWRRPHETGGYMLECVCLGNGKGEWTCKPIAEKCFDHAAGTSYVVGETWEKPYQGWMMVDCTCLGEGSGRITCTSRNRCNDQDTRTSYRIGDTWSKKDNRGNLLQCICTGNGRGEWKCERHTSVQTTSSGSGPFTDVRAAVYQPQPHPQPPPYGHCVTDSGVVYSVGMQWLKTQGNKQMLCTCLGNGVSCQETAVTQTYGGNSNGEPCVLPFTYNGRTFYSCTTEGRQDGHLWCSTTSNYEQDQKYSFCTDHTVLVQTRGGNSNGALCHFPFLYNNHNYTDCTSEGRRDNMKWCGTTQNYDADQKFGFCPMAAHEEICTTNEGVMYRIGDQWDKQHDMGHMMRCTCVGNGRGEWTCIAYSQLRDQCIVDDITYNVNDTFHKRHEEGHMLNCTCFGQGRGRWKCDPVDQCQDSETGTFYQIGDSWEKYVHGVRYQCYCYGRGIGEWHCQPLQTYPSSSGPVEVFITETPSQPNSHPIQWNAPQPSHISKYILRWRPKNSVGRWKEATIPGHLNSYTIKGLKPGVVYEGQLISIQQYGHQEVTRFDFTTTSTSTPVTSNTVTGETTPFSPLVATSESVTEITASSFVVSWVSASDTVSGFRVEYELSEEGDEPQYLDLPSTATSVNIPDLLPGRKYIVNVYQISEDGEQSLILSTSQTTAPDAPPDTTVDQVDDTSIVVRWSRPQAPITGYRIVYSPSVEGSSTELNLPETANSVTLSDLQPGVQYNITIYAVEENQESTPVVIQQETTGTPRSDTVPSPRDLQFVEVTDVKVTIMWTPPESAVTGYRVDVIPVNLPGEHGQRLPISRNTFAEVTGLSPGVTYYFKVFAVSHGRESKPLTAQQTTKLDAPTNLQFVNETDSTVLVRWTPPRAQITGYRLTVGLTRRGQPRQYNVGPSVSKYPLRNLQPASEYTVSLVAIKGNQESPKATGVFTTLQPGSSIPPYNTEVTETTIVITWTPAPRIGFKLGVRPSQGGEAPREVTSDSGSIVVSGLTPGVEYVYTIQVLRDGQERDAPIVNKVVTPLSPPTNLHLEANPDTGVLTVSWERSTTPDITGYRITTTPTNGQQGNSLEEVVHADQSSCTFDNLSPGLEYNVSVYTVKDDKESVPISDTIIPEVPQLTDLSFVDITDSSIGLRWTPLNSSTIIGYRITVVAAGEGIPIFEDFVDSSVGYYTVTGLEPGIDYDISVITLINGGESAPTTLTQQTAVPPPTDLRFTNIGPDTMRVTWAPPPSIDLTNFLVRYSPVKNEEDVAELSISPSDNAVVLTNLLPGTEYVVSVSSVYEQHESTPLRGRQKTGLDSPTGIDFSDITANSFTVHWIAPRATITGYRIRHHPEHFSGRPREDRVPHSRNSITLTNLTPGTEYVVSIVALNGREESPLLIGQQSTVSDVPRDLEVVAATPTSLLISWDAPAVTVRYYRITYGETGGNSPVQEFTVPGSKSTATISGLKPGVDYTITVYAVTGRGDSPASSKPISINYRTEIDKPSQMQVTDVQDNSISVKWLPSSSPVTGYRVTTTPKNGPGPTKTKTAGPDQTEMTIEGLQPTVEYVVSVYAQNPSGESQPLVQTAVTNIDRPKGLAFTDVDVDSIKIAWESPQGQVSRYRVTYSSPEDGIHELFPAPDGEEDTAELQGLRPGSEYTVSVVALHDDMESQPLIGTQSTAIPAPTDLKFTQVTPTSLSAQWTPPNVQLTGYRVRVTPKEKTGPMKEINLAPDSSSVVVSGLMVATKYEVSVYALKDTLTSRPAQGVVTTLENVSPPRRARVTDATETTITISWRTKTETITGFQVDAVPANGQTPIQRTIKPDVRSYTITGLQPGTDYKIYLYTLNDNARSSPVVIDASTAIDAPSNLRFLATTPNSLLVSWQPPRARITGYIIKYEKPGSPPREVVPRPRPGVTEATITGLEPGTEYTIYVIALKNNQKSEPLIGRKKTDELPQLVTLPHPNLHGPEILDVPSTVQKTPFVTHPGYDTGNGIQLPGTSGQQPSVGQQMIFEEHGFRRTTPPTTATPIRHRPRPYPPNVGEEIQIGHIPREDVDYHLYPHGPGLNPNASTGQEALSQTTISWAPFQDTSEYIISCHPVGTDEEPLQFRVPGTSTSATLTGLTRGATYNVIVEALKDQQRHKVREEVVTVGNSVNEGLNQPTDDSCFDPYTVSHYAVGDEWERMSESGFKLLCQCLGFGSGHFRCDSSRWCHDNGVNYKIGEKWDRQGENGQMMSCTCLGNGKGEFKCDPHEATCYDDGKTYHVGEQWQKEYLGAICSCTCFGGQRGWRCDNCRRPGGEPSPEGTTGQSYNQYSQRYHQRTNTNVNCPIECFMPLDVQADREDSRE

Row | Substance | normalized enrichment (MRM), tenascin-C against control [1] [fold] | normalized enrichment (spectrum count), tenascin-C against control [2] [fold] | MASCOT Score (tenascin-C) [3] | spectrum count (tenascin-C) [3] | also measured
1 | Clusterin (from UniProt P10909 23-449) | 2.1 | 4.2 | 258 | 11 | –
2 | Fibronectin from HEK293 conditioned medium (from UniProt P02751 32-2477) | – | – | – | – | MASCOT Score (fibronectin) [4]: 2210; spectrum count (fibronectin) [4]: 135
3 | Fibronectin from HEK293 conditioned medium, P02751 32-2477 | 4.8 | 19.2 | 544 | 25 | –
4 | Nidogen-2 (from UniProt Q14112 31-1375) | 2.2 | 5.8 | 437 | 15 | –
5 | Peptidyl-prolyl cis-trans isomerase A (PPIA) from HEK293 conditioned medium (from UniProt P62937 2-165) (enzyme) | – | – | – | – | MASCOT Score (tenascin-C) [5]: 675; MASCOT Score (fibronectin) [6]: 676; spectrum count (fibronectin) [7]: 36; spectrum count (tenascin-C) [8]: 56
6 | Phosphoglycerate kinase 1 (from UniProt P00558 2-417) (enzyme) | 1.2 | 3.3 | 402 | 26 | –
7 | alpha-enolase (ENOA) from HEK293 conditioned medium (from UniProt P06733 2-434) (enzyme) | – | – | – | – | MASCOT Score (fibronectin) [9]: 701; spectrum count (tenascin-C) [10]: 42; spectrum count (fibronectin) [11]: 26; MASCOT Score (tenascin-C) [12]: 1040
